Measured values from patent publication US6500417 (DSM N V, dated 2002).

B1: hIL-3 deletion mutant 939 (deletion 120-130) (ligand)
chain: APMTQTTPLKTSWVNCSNMIDEIITHLKQPPLPLLDFNNLNGEDQDILMENNLRRPNLEAFNRAVKSLQNASAIESILKNLLPCLPLATAAPTRHPIHIKDGDWNEFRRKLTFYLKTLEAIF
notes: not shown: heterologous N-terminal leader of the E. coli fusion (pGB/IL-336: 12 aa; pGB/IL-339: 15 aa)
B2: hIL-3 substitution mutant 1480 (Asp36→Arg36) (ligand)
chain: APMTQTTPLKTSWVNCSNMIDEIITHLKQPPLPLLRFNNLNGEDQDILMENNLRRPNLEAFNRAVKSLQNASAIESILKNLLPCLPLATAAPTRHPIHIKDGDWNEFRRKLTFYLKTLENAQAQQTTLSLAIF
notes: also called 36D→R; not shown: heterologous N-terminal leader of the E. coli fusion (pGB/IL-336: 12 aa; pGB/IL-339: 15 aa)
B3: hIL-3 substitution mutant 1491 (Glu106→Lys106) (ligand)
chain: APMTQTTPLKTSWVNCSNMIDEIITHLKQPPLPLLDFNNLNGEDQDILMENNLRRPNLEAFNRAVKSLQNASAIESILKNLLPCLPLATAAPTRHPIHIKDGDWNKFRRKLTFYLKTLENAQAQQTTLSLAIF
notes: also called 106E → K; not shown: heterologous N-terminal leader of the E. coli fusion (pGB/IL-336: 12 aa; pGB/IL-339: 15 aa)
B4: hIL-3 substitution mutant 1490 (His98Lys100Asp101→Glu98Asp100Gln101) (ligand)
chain: APMTQTTPLKTSWVNCSNMIDEIITHLKQPPLPLLDFNNLNGEDQDILMENNLRRPNLEAFNRAVKSLQNASAIESILKNLLPCLPLATAAPTRHPIEIDQGDWNEFRRKLTFYLKTLENAQAQQTTLSLAIF
notes: also called 98HIKD → EIKQ; not shown: heterologous N-terminal leader of the E. coli fusion (pGB/IL-336: 12 aa; pGB/IL-339: 15 aa)
B5: hIL-3 substitution mutant 1485 (Glu59→Lys59) (ligand)
chain: APMTQTTPLKTSWVNCSNMIDEIITHLKQPPLPLLDFNNLNGEDQDILMENNLRRPNLKAFNRAVKSLQNASAIESILKNLLPCLPLATAAPTRHPIHIKDGDWNEFRRKLTFYLKTLENAQAQQTTLSLAIF
notes: also called 59E → K; not shown: heterologous N-terminal leader of the E. coli fusion (pGB/IL-336: 12 aa; pGB/IL-339: 15 aa)
B6: hIL-3 substitution mutant 1482 (Asp46→Arg46) (ligand)
chain: APMTQTTPLKTSWVNCSNMIDEIITHLKQPPLPLLDFNNLNGEDQRILMENNLRRPNLEAFNRAVKSLQNASAIESILKNLLPCLPLATAAPTRHPIHIKDGDWNEFRRKLTFYLKTLENAQAQQTTLSLAIF
notes: also called 46D→R; not shown: heterologous N-terminal leader of the E. coli fusion (pGB/IL-336: 12 aa; pGB/IL-339: 15 aa)
B7: hIL-3 substitution mutant 1487A (Glu75→Gly75) (ligand)
chain: APMTQTTPLKTSWVNCSNMIDEIITHLKQPPLPLLDFNNLNGEDQDILMENNLRRPNLEAFNRAVKSLQNASAIGSILKNLLPCLPLATAAPTRHPIHIKDGDWNEFRRKLTFYLKTLENAQAQQTTLSLAIF
notes: also called 75E → G; not shown: heterologous N-terminal leader of the E. coli fusion (pGB/IL-336: 12 aa; pGB/IL-339: 15 aa)
B8: hIL-3 substitution mutant 1487B (Glu75→Arg75) (ligand)
chain: APMTQTTPLKTSWVNCSNMIDEIITHLKQPPLPLLDFNNLNGEDQDILMENNLRRPNLEAFNRAVKSLQNASAIRSILKNLLPCLPLATAAPTRHPIHIKDGDWNEFRRKLTFYLKTLENAQAQQTTLSLAIF
notes: also called 75E → R; not shown: heterologous N-terminal leader of the E. coli fusion (pGB/IL-336: 12 aa; pGB/IL-339: 15 aa)
B9: hIL-3 C-terminal deletion mutant 1455 (lacking amino acids 130-133) (ligand)
chain: APMTQTTPLKTSWVNCSNMIDEIITHLKQPPLPLLDFNNLNGEDQDILMENNLRRPNLEAFNRAVKSLQNASAIESILKNLLPCLPLATAAPTRHPIHIKDGDWNEFRRKLTFYLKTLENAQAQQTTLS
B10: hIL-3 double deletion mutant 9329 (deletions 1-14/120-130) (ligand)
chain: NCSNMIDEIITHLKQPPLPLLDFNNLNGEDQDILMENNLRRPNLEAFNRAVKSLQNASAIESILKNLLPCLPLATAAPTRHPIHIKDGDWNEFRRKLTFYLKTLEAIF
notes: not shown: heterologous N-terminal leader of the E. coli fusion, rebuilt with oligonucleotides 1424/1425
B11: hIL-3 deletion mutant 932 (deletion 1-14) (ligand)
chain: NCSNMIDEIITHLKQPPLPLLDFNNLNGEDQDILMENNLRRPNLEAFNRAVKSLQNASAIESILKNLLPCLPLATAAPTRHPIHIKDGDWNEFRRKLTFYLKTLENAQAQQTTLSLAIF
notes: as for B1

Assays:
IL-3 receptor (human) = IL-3 receptor (human) (UniProt P26951); assay: cell-based or functional assay
IL-3 receptor [1] = molecular target: T1, IL-3 receptor (human, UniProt P26951 19-378; P32927 17-897); assay: competition with radiolabeled hIL-3 for binding to cells, relative to reference IL-3
T1 construct: whole, on cells; also called ILK3 receptor
Description: (§1) An ILK3 receptor binding assay was performed with purified recombinant hIL-3 (see EPA 0390252) was radiolabeled with the Bolton-Hunter reagent (as described by Budel et al., Blood 74 (1989) 565–571). The specific activity was estimated at 80,000 cpm/ng of IL-3. As target, either donor leukocytes, patient AML cells, or MV4-11 (ATCC: CRL-9591) cells were used. Cells were washed in Hanks Balanced Salt solution and suspended in Alpha-MEM plus 1% BSA. Usually, 3–10×10⁶ cells were incubated with 200–300 pM of radiolabeled IL-3 and various concentrations of unlabeled mutant protein in a total volume of 200 µl for 1 hr at 37° C. Cell-bound labeled IL-3 was centrifuged for 10 min at 1000×g at 4° C. through a 0.5 ml cushion of bovine calf serum in an Eppendorf tube (Budel et al., 1989). The tubes were frozen in liquid nitrogen and the tips cut off for counting in a Packard gamma counter. Competition binding was determined relative to the reference preparation. […] Radiolabeled IL-3 binding to patient AML blasts is competed with unlabeled IL-3 protein (reference preparation). Due to the low number of receptors (less than 200) on the target cells, data for competition mostly varied by one order of magnitude.

IL-3 receptor [2] = molecular target: T1, IL-3 receptor; assay: cell-based or functional assay
IL-3 receptor [3] = molecular target: T1, IL-3 receptor; assay: receptor binding assay on cells
IL-3 receptor [4] = molecular target: T1, IL-3 receptor; assay: competition with radiolabeled hIL-3 for binding to cells, relative to reference IL-3; done once
Description: as §1
[1]Deletion between amino acid numbers of mature human IL-3 is indicated. Substitutions of amino acids are indicated in single letter code. [2]Median specific biological activity is expressed relative to the reference IL-3 preparations. [3]Antagonistic potential is represented as relative receptor binding activity divided by relative biological activity. The range is presented between brackets. […] Muteins were diluted in medium and tested for biological activity. Receptor binding experiments were performed once. †Mutein protein concentration was too low for densitometric scanning and was estimated from gels and western blots. ¤Mutant proteins were expressed in Bacillus and lack a leader polypeptide sequence.

T1 sequence (P26951 19-378, chain 1 of 2): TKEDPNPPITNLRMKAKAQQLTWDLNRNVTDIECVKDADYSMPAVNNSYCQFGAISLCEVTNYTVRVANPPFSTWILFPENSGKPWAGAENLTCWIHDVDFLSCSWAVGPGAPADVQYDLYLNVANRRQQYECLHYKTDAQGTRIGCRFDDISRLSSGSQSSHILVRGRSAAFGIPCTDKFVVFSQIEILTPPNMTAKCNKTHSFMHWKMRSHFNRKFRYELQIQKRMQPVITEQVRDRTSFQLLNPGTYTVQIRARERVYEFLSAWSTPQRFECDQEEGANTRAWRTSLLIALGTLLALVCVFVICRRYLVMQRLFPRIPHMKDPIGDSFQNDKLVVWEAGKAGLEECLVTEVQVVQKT
T1 sequence (P32927 17-897, chain 2 of 2): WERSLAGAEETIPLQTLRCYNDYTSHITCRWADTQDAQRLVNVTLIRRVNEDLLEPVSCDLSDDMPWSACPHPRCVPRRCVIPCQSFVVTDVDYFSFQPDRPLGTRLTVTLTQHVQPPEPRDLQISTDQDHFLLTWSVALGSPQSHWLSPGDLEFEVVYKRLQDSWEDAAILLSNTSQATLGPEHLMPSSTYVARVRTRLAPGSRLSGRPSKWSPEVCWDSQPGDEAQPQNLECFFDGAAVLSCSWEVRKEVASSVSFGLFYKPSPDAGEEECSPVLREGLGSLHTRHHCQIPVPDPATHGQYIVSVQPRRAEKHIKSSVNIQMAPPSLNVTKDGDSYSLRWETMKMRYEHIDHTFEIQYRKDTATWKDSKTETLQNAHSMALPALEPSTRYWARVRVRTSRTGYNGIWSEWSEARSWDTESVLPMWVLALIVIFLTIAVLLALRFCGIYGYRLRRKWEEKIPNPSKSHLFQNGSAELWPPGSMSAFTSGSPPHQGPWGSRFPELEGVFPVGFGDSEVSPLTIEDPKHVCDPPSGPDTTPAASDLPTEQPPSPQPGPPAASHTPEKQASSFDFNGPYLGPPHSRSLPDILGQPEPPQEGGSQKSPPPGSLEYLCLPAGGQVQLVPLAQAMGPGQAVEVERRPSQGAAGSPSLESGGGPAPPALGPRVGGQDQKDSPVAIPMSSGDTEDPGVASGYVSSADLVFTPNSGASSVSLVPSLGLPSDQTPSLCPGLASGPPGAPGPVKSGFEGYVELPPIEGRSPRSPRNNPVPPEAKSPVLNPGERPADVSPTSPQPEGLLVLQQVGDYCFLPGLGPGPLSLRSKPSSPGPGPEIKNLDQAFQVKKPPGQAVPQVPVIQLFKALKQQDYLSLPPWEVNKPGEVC
IL-3 receptor (human), sequence (P26951 19-378, chain 1 of 2): as the sequence (P26951 19-378, chain 1 of 2) above
IL-3 receptor (human), sequence (P32927 17-897, chain 2 of 2, further chain): as the sequence (P32927 17-897, chain 2 of 2) above

Molecule	REL. SPEC. BIOLOGICAL ACTIVITY (DNA synthesis of AML193 cells) (relative to reference IL-3) (IL-3 receptor (human))	relative antagonistic potential (relative receptor binding activity / relative biological activity) (IL-3 receptor [1])	REL. SPEC. BIOLOGICAL ACTIVITY (DNA synthesis of AML193 cells) (IL-3 receptor [2])	binding activity retained (IL-3 receptor [3]) [percent]	relative antagonistic potential (relative receptor binding activity / relative biological activity) (IL-3 receptor [4])
hIL-3 substitution mutant 1489 (Arg94→Pro94) (from UniProt P08700 20-152) (ligand)	0.0017	–	–	–	–
B1	–	1.8	2 relative to reference IL-3	100	–
B2	–	–	0.0031 relative to reference IL-3	–	12
B3	–	–	0.00032 relative to reference IL-3	–	6
B4	–	–	0.0022 relative to reference IL-3	–	5
B5	–	–	0.011 relative to reference IL-3	–	3
B6	–	–	0.0075 relative to reference IL-3	–	0.6
B7	–	–	0.015 relative to reference IL-3	–	3
B8	–	–	0.0086 relative to reference IL-3	–	3
B9	–	–	–	100	–
B10	–	2	0.4 relative to reference IL-3	100	–
B11	–	2.8	0.71 relative to reference IL-3	100	–
